Residue numbers refer to the chain shown, from its start.
T1: human TREM2 expressed on HEK293-H6 cells (human, UniProt Q9NZC2 19-230)
T1 construct: Wild type human TREM2 stably co-expressed with DAP12 in HEK 293 cells (clone HEK293-H6); also called Human TREM2 HEK; TREM2 expressed by HEK293-H6 cells
T1 sequence: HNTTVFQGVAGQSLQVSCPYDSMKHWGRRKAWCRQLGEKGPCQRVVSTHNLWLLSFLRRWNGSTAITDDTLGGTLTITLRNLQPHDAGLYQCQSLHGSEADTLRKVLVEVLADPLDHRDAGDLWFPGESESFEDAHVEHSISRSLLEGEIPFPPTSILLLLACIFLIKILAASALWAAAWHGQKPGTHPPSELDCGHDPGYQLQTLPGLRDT

T2: recombinant human TREM2 ECD (human, UniProt Q9NZC2 19-172)
T2 construct: TREM2' / 'TREM2 ECD'; also called hTREM2; Human TREM2 (Biacore)
T2 sequence: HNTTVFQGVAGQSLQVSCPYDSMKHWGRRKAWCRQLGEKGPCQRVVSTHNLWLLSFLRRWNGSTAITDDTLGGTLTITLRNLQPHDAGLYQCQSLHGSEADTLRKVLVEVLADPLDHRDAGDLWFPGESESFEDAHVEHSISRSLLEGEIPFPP

T3: recombinant cynomolgus TREM2 ECD (cynomolgus, UniProt A0A2K5UY34 49-204)
T3 construct: extracellular domain; also called Cyno TREM2
T3 sequence: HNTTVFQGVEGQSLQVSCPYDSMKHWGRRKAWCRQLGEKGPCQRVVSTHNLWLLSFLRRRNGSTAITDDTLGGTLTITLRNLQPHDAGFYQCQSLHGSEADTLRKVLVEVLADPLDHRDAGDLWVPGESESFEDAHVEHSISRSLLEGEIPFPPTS

B1: ATV:TREM2 #5 (antibody, human IgG1, kappa, L234A L235A)
heavy 1: EVQLVESGGGLVQPGGSLRLSCAASGFTFTDFYMSWVRQAPGKGLEWVSVIRNKANAYTAGYNPSVKGRFTISRDNSKNTLYLQMNSLRAEDTAVYYCARLTYGFDYWGQGTLVTVSSASTKGPSVFPLAPSSKSTSGGTAALGCLVKDYFPEPVTVSWNSGALTSGVHTFPAVLQSSGLYSLSSVVTVPSSSLGTQTYICNVNHKPSNTKVDKKVEPKSCDKTHTCPPCPAPEAAGGPSVFLFPPKPKDTLMISRTPEVTCVVVDVSHEDPEVKFNWYVDGVEVHNAKTKPREEQYNSTYRVVSVLTVLHQDWLNGKEYKCKVSNKALPAPIEKTISKAKGQPREPQVYTLPPSRDELTKNQVSLWCLVKGFYPSDIAVEWESYGTEWSNYKTTPPVLDSDGSFFLYSKLTVSKEEWQQGFVFSCSVLHEALHSHYTQKSLSLSPGK
heavy 2: EVQLVESGGGLVQPGGSLRLSCAASGFTFTDFYMSWVRQAPGKGLEWVSVIRNKANAYTAGYNPSVKGRFTISRDNSKNTLYLQMNSLRAEDTAVYYCARLTYGFDYWGQGTLVTVSSASTKGPSVFPLAPSSKSTSGGTAALGCLVKDYFPEPVTVSWNSGALTSGVHTFPAVLQSSGLYSLSSVVTVPSSSLGTQTYICNVNHKPSNTKVDKKVEPKSCDKTHTCPPCPAPEAAGGPSVFLFPPKPKDTLMISRTPEVTCVVVDVSHEDPEVKFNWYVDGVEVHNAKTKPREEQYNSTYRVVSVLTVLHQDWLNGKEYKCKVSNKALPAPIEKTISKAKGQPREPQVYTLPPSRDELTKNQVSLSCAVKGFYPSDIAVEWESNGQPENNYKTTPPVLDSDGSFFLVSKLTVDKSRWQQGNVFSCSVLHEALHSHYTQKSLSLSPGK
light: DIVMTQTPLSLPVTPGEPASISCQSSKSLLHSTGKTYLNWYLQKPGQSPQLLIYWMSTRASGVPDRFSGSGSGTDFTLKISRVEAEDVGVYYCQQFLEYPFTFGQGTKVEIKRTVAAPSVFIFPPSDEQLKSGTASVVCLLNNFYPREAKVQWKVDNALQSGNSQESVTEQDSKDSTYSLSSTLTLSKADYEKHKVYACEVTHQGLSSPVTKSFNRGEC
notes: Knob/hole heterodimeric IgG1; the second carries hole, LALA and LS; also called anti-TREM2/CH35.23.4
B2: ATV:TREM2 #2 (antibody, human IgG1, kappa, L234A L235A)
heavy 1: B1 heavy 1 with Y385F
heavy 2: B1 heavy 2
light: B1 light
notes: Knob/hole heterodimeric IgG1; the second carries hole, LALA and LS; also called anti-TREM2/CH35.23.1.1
B3: ATV:TREM2 #3 (antibody, human IgG1, kappa, L234A L235A)
heavy 1: B1 heavy 1 with S390V, S414T
heavy 2: B1 heavy 2
light: B1 light
notes: Knob/hole heterodimeric IgG1; the second carries hole, LALA and LS; also called anti-TREM2/CH35.23.3
B4: ATV:TREM2 #4 (antibody, human IgG1, kappa, L234A L235A)
heavy 1: B1 heavy 1 with S390V, S414T
heavy 2: not shown
light: B1 light
notes: Knob/hole heterodimeric IgG1; the second carries hole and LS only, without LALA; also called CH3C.35.23.3 cisLALA
B5: TREM2 Ab (antibody, human IgG1, kappa, L234A L235A, V domains shown)
VH: EVQLVESGGGLVQPGGSLRLSCAASGFTFTDFYMSWVRQAPGKGLEWVSVIRNKANAYTAGYNPSVKGRFTISRDNSKNTLYLQMNSLRAEDTAVYYCARLTYGFDYWGQGTLVTVSS
VL: DIVMTQTPLSLPVTPGEPASISCQSSKSLLHSTGKTYLNWYLQKPGQSPQLLIYWMSTRASGVPDRFSGSGSGTDFTLKISRVEAEDVGVYYCQQFLEYPFTFGQGTKVEIKR
notes: also called corresponding anti-TREM2 antibody; TREM2 IgG

biological target: T1, human TREM2 expressed on HEK293-H6 cells; experiment: flow cytometry on human TREM2-expressing HEK cells
Protocol: (§1) After incubation, the cells were centrifuged and washed in FACS buffer (PBS+0.5% BSA) twice. Mixed cells were resuspended in FACS buffer with human Trustain FcX solution (Biolegend, Catalog No. 422302) at a density of 10⁶/mL per cell line. The mixed cell lines were seeded at 200,000 cells per well in a 96-well round-bottom plate and incubated for 20 minutes at room temperature. After incubation, the cells were centrifuged and incubated with a dose titration of anti-TREM2 antibodies for 45 minutes on ice. After incubation, the cells were centrifuged and washed with FACS buffer three times. The cells were then incubated with secondary antibody (Alexa Fluor 647 AffiniPure F(ab′)2 Fragment Goat Anti-human IgG(H+L), Jackson ImmunoResearch Laboratories, Catalog No. 109-606-088, 1:800 dilution) for 30 minutes on ice. After incubation, the cells were washed with FACS buffer three times, resuspended in 100 μL of FACS buffer, and analyzed by flow cytometry (BD FACSCanto II, San Jose, Calif.), for which 30,000 events were obtained for each sample. Mean fluorescence intensity per cells were calculated by FlowJo software and used for generating dose response binding curve.

| EC50 [nM] | Binder |
| --- | --- |
| 3.6 | B1 |
| 4.9 | B2 |
| 4.6 | B3 |

biological target: T2, recombinant human TREM2 ECD; experiment: SPR (Biacore), antibody captured by anti-human Fab, TREM2 ECD as analyte
Protocol: (§2) Surface plasmon resonance (Biacore™ 8K instrument) was used to measure anti-TREM2 antibody affinities for human and cynomolgus TREM2 ECD. Anti-TREM2 antibodies were captured using Human Fab Capture Kit (GE Healthcare Life Sciences, Catalog No. 28958325) on a Biacore Series S CM5 sensor chip (GE Healthcare Life Sciences, Catalog No. 29149604). Serial 3-fold dilutions of recombinant human or cynomolgus TREM2 were injected at a flow rate of 30 μL/min. Antibody binding was monitored for 300 seconds, followed by monitoring of antibody dissociation for 600+ seconds in HBS-EP+ running buffer (GE Healthcare Life Sciences, Catalog No. BR100669). The binding response was corrected by subtracting the RU value from a blank flow cell. A 1:1 Languir model of simultaneous fitting of kₒₙ and koff was used for kinetics analysis. KD binding values were calculated from kₒₙ and koff.

| Kd [nM] | Binder |
| --- | --- |
| 5.7 | B1 |
| 5.4 | B2 |
| 3 | B3 |
| 2 | B4 |

biological target: T3, recombinant cynomolgus TREM2 ECD; experiment: SPR (Biacore), antibody captured by anti-human Fab, cyno TREM2 ECD as analyte
Protocol: as §2

| Kd [nM] | Binder |
| --- | --- |
| 2.4 | B1 |
| 2.4 | B2 |
| 2.2 | B3 |
| 2.2 | B4 |

biological target: T4, human transferrin receptor (human, UniProt P02786 89-760, limits assumed); experiment: SPR (Biacore), antibody captured by anti-human Fab on CM5 chip, human TfR as analyte, 1:1 model
T4 construct: also called Human TfR; TfR
Protocol: Binding of anti-TREM2 protein to human transferrin receptor was determined as follows: anti-human-Fab was immobilized on a CM5 chip, and the anti-TREM2 protein was captured. Full-length human TfR or human TfR apical domain at serial dilution (e.g., concentrations of 1-1,000 nM) was flowed over the chip (180 second association time) and then allowed to dissociate. Fitting was performed using a 1:1 binding model.

T4 sequence (P02786 89-760 limits assumed): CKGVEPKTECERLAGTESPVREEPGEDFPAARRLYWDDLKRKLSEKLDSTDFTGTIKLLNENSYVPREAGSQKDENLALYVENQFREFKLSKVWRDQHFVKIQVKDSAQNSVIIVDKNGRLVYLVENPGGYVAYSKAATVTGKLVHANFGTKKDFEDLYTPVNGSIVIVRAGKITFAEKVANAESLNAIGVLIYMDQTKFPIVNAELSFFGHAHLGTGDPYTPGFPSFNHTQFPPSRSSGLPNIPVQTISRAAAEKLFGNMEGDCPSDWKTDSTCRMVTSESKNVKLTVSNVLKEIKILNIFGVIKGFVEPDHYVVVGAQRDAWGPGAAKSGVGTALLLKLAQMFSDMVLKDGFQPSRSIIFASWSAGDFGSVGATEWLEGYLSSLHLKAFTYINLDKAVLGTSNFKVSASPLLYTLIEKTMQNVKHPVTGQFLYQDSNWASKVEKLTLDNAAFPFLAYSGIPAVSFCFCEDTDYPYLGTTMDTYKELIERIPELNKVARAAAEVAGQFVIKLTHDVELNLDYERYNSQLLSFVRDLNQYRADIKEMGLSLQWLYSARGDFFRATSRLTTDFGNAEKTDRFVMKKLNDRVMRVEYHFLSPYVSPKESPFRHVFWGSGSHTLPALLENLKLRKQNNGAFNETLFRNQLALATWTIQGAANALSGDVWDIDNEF

| Kd [nM] | Binder |
| --- | --- |
| 620 | B1 |
| 650 | B2 |
| 1400 | B3 |

biological target: T1, human TREM2 expressed on HEK293-H6 cells; experiment: flow cytometry, dose titration on HEK 293 cells expressing human TREM2 (TREM2-expressing HEK)
Protocol: as §1

| EC50 (read off the curve) [nM] | Binder |
| --- | --- |
| ~0.4 | B5 |
